Experimental data from the supplement of paper PMC10567573.

B1: NEK8 (parent)
chain: VVGTPCYISPELCEGKPYNQKSDI

Variants of: B1
Assay: protein stability index of a GFP-peptide fusion (GPS, HEK-293T) (PSI 1-6); higher = more stable
Conditions: c terminus: a fixed tail appended
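Further: lentivirally expressed fusions sorted by FACS into six bins by GFP to DsRed ratio, PSI derived from sequencing read proportions per bin multiplied by bin number.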

For VVGTPCYISPELCEGKEYNQKSDI [P17E], which protein stability index is on record?
Its protein stability index is 3.09.

With VVGTPCYISPELCEGKCYNQKSDI [P17C] as the variant, how does the protein stability index read?
The protein stability index was 2.22.

With VVGTPCYISPELCEGKAYNQKSDI [P17A] as the variant, how does the protein stability index read?
Its protein stability index is 2.91.

Which protein stability index does the source give for VVGTPCYISPELCEGKIYNQKSDI [P17I] here?
Its protein stability index is 2.39.

With VVGTPCYISPELCEGKLYNQKSDI [P17L] as the variant, how does the protein stability index read?
The protein stability index was 2.23.

Which protein stability index does the source give for VVGTPCYISPELCEGKSYNQKSDI [P17S] here?
The protein stability index was 3.02.

Which protein stability index does the source give for VVGTPCYISPELCEGKRYNQKSDI [P17R] here?
Its protein stability index is 3.38.

For VVGTPCYISPELCEGKVYNQKSDI [P17V], which protein stability index is on record?
Its protein stability index is 2.55.

Which protein stability index does the source give for VVGTPCYISPELCEGKHYNQKSDI [P17H] here?
Its protein stability index is 2.9.

For VVGTPCYISPELCEGKQYNQKSDI [P17Q], which protein stability index is on record?
Its protein stability index is 2.77.

For VVGTPCYISPELCEGKKYNQKSDI [P17K], which protein stability index is on record?
Its protein stability index is 2.99.

With VVGTPCYISPELCEGKMYNQKSDI [P17M] as the variant, how does the protein stability index read?
Its protein stability index is 2.35.

Which protein stability index does the source give for VVGTPCYISPELCEGKYYNQKSDI [P17Y] here?
Its protein stability index is 2.27.

With VVGTPCYISPELCEGKGYNQKSDI [P17G] as the variant, how does the protein stability index read?
Its protein stability index is 2.76.

With VVGTPCYISPELCEGKNYNQKSDI [P17N] as the variant, how does the protein stability index read?
Its protein stability index is 3.12.

Which protein stability index does the source give for VVGTPCYISPELCEGKTYNQKSDI [P17T] here?
Its protein stability index is 3.

Which protein stability index does the source give for VVGTPCYISPELCEGKWYNQKSDI [P17W] here?
The protein stability index was 1.65.

With VVGTPCYISPELCEGKDYNQKSDI [P17D] as the variant, how does the protein stability index read?
The protein stability index was 3.05.

With VVGTPCYISPELCEGKFYNQKSDI [P17F] as the variant, how does the protein stability index read?
Its protein stability index is 1.99.

With VVGTPCYISPELCEGIPYNQKSDI [K16I] as the variant, how does the protein stability index read?
Its protein stability index is 2.02.

With VVGTPCYISPELCEGAPYNQKSDI [K16A] as the variant, how does the protein stability index read?
The protein stability index was 2.16.

For VVGTPCYISPELCEGCPYNQKSDI [K16C], which protein stability index is on record?
The protein stability index was 2.43.

Which protein stability index does the source give for VVGTPCYISPELCEGTPYNQKSDI [K16T] here?
The protein stability index was 2.54.

For VVGTPCYISPELCEGGPYNQKSDI [K16G], which protein stability index is on record?
The protein stability index was 2.55.

With VVGTPCYISPELCEGMPYNQKSDI [K16M] as the variant, how does the protein stability index read?
The protein stability index was 2.81.

Which protein stability index does the source give for VVGTPCYISPELCEGEPYNQKSDI [K16E] here?
The protein stability index was 3.05.

For VVGTPCYISPELCEGPPYNQKSDI [K16P], which protein stability index is on record?
Its protein stability index is 2.15.

Which protein stability index does the source give for VVGTPCYISPELCEGVPYNQKSDI [K16V] here?
The protein stability index was 2.78.

Which protein stability index does the source give for VVGTPCYISPELCEGQPYNQKSDI [K16Q] here?
The protein stability index was 2.79.

Which protein stability index does the source give for VVGTPCYISPELCEGWPYNQKSDI [K16W] here?
Its protein stability index is 1.55.

For VVGTPCYISPELCEGYPYNQKSDI [K16Y], which protein stability index is on record?
The protein stability index was 1.96.

For VVGTPCYISPELCEGFPYNQKSDI [K16F], which protein stability index is on record?
Its protein stability index is 2.11.

For VVGTPCYISPELCEGLPYNQKSDI [K16L], which protein stability index is on record?
Its protein stability index is 2.07.

With VVGTPCYISPELCEGDPYNQKSDI [K16D] as the variant, how does the protein stability index read?
Its protein stability index is 3.14.

For VVGTPCYISPELCEGNPYNQKSDI [K16N], which protein stability index is on record?
Its protein stability index is 3.13.

Which protein stability index does the source give for VVGTPCYISPELCEGRPYNQKSDI [K16R] here?
Its protein stability index is 2.62.

Which protein stability index does the source give for VVGTPCYISPELCEGSPYNQKSDI [K16S] here?
The protein stability index was 2.17.

With VVGTPCYISPELCEGHPYNQKSDI [K16H] as the variant, how does the protein stability index read?
Its protein stability index is 2.15.

For VVGTPCYISPELCEHKPYNQKSDI [G15H], which protein stability index is on record?
The protein stability index was 2.84.

For VVGTPCYISPELCECKPYNQKSDI [G15C], which protein stability index is on record?
The protein stability index was 2.47.

With VVGTPCYISPELCEFKPYNQKSDI [G15F] as the variant, how does the protein stability index read?
The protein stability index was 2.15.

For VVGTPCYISPELCEVKPYNQKSDI [G15V], which protein stability index is on record?
Its protein stability index is 3.14.

With VVGTPCYISPELCEMKPYNQKSDI [G15M] as the variant, how does the protein stability index read?
Its protein stability index is 2.39.

With VVGTPCYISPELCEKKPYNQKSDI [G15K] as the variant, how does the protein stability index read?
Its protein stability index is 3.45.

For VVGTPCYISPELCEIKPYNQKSDI [G15I], which protein stability index is on record?
Its protein stability index is 2.41.

For VVGTPCYISPELCEEKPYNQKSDI [G15E], which protein stability index is on record?
The protein stability index was 2.8.

For VVGTPCYISPELCEYKPYNQKSDI [G15Y], which protein stability index is on record?
Its protein stability index is 2.34.

With VVGTPCYISPELCEPKPYNQKSDI [G15P] as the variant, how does the protein stability index read?
Its protein stability index is 2.56.

Which protein stability index does the source give for VVGTPCYISPELCELKPYNQKSDI [G15L] here?
Its protein stability index is 2.19.

Which protein stability index does the source give for VVGTPCYISPELCEWKPYNQKSDI [G15W] here?
Its protein stability index is 1.64.

With VVGTPCYISPELCENKPYNQKSDI [G15N] as the variant, how does the protein stability index read?
Its protein stability index is 2.68.

For VVGTPCYISPELCERKPYNQKSDI [G15R], which protein stability index is on record?
Its protein stability index is 2.85.

With VVGTPCYISPELCEAKPYNQKSDI [G15A] as the variant, how does the protein stability index read?
Its protein stability index is 2.85.

For VVGTPCYISPELCESKPYNQKSDI [G15S], which protein stability index is on record?
Its protein stability index is 2.37.

With VVGTPCYISPELCETKPYNQKSDI [G15T] as the variant, how does the protein stability index read?
The protein stability index was 2.87.

For VVGTPCYISPELCEQKPYNQKSDI [G15Q], which protein stability index is on record?
The protein stability index was 2.97.

Which protein stability index does the source give for VVGTPCYISPELCEDKPYNQKSDI [G15D] here?
The protein stability index was 2.93.

With VVGTPCYISPELKEGKPYNQKSDI [C13K] as the variant, how does the protein stability index read?
The protein stability index was 3.38.

Which protein stability index does the source give for VVGTPCYISPELLEGKPYNQKSDI [C13L] here?
The protein stability index was 2.88.

For VVGTPCYISPELMEGKPYNQKSDI [C13M], which protein stability index is on record?
Its protein stability index is 2.79.

Which protein stability index does the source give for VVGTPCYISPELVEGKPYNQKSDI [C13V] here?
Its protein stability index is 2.95.

With VVGTPCYISPELHEGKPYNQKSDI [C13H] as the variant, how does the protein stability index read?
The protein stability index was 2.92.

With VVGTPCYISPELDEGKPYNQKSDI [C13D] as the variant, how does the protein stability index read?
Its protein stability index is 3.34.

For VVGTPCYISPELWEGKPYNQKSDI [C13W], which protein stability index is on record?
The protein stability index was 1.92.

With VVGTPCYISPELQEGKPYNQKSDI [C13Q] as the variant, how does the protein stability index read?
The protein stability index was 2.79.

Which protein stability index does the source give for VVGTPCYISPELTEGKPYNQKSDI [C13T] here?
The protein stability index was 2.94.

Which protein stability index does the source give for VVGTPCYISPELGEGKPYNQKSDI [C13G] here?
The protein stability index was 3.08.

For VVGTPCYISPELFEGKPYNQKSDI [C13F], which protein stability index is on record?
Its protein stability index is 2.19.

Which protein stability index does the source give for VVGTPCYISPELPEGKPYNQKSDI [C13P] here?
The protein stability index was 2.3.

For VVGTPCYISPELAEGKPYNQKSDI [C13A], which protein stability index is on record?
Its protein stability index is 2.71.

For VVGTPCYISPELNEGKPYNQKSDI [C13N], which protein stability index is on record?
The protein stability index was 3.23.

With VVGTPCYISPELREGKPYNQKSDI [C13R] as the variant, how does the protein stability index read?
Its protein stability index is 3.27.

With VVGTPCYISPELEEGKPYNQKSDI [C13E] as the variant, how does the protein stability index read?
Its protein stability index is 2.98.

For VVGTPCYISPELSEGKPYNQKSDI [C13S], which protein stability index is on record?
Its protein stability index is 2.9.

With VVGTPCYISPELIEGKPYNQKSDI [C13I] as the variant, how does the protein stability index read?
The protein stability index was 2.48.

With VVGTPCYISPELYEGKPYNQKSDI [C13Y] as the variant, how does the protein stability index read?
Its protein stability index is 2.79.

For VVGTPCYISPELCEGKPVNQKSDI [Y18V], which protein stability index is on record?
The protein stability index was 3.67.

Which protein stability index does the source give for VVGTPCYISPELCEGKPPNQKSDI [Y18P] here?
The protein stability index was 3.4.

With VVGTPCYISPELCEGKPFNQKSDI [Y18F] as the variant, how does the protein stability index read?
The protein stability index was 2.67.

With VVGTPCYISPELCEGKPLNQKSDI [Y18L] as the variant, how does the protein stability index read?
Its protein stability index is 2.8.

With VVGTPCYISPELCEGKPENQKSDI [Y18E] as the variant, how does the protein stability index read?
The protein stability index was 3.72.

With VVGTPCYISPELCEGKPHNQKSDI [Y18H] as the variant, how does the protein stability index read?
Its protein stability index is 2.7.

With VVGTPCYISPELCEGKPWNQKSDI [Y18W] as the variant, how does the protein stability index read?
The protein stability index was 2.6.

For VVGTPCYISPELCEGKPMNQKSDI [Y18M], which protein stability index is on record?
Its protein stability index is 3.15.

Which protein stability index does the source give for VVGTPCYISPELCEGKPCNQKSDI [Y18C] here?
Its protein stability index is 3.05.

With VVGTPCYISPELCEGKPINQKSDI [Y18I] as the variant, how does the protein stability index read?
The protein stability index was 2.79.

For VVGTPCYISPELCEGKPANQKSDI [Y18A], which protein stability index is on record?
The protein stability index was 3.6.

For VVGTPCYISPELCEGKPKNQKSDI [Y18K], which protein stability index is on record?
Its protein stability index is 3.67.

With VVGTPCYISPELCEGKPTNQKSDI [Y18T] as the variant, how does the protein stability index read?
Its protein stability index is 3.68.

With VVGTPCYISPELCEGKPRNQKSDI [Y18R] as the variant, how does the protein stability index read?
The protein stability index was 3.58.

Which protein stability index does the source give for VVGTPCYISPELCEGKPDNQKSDI [Y18D] here?
The protein stability index was 3.53.

For VVGTPCYISPELCEGKPNNQKSDI [Y18N], which protein stability index is on record?
The protein stability index was 3.63.

Which protein stability index does the source give for VVGTPCYISPELCEGKPQNQKSDI [Y18Q] here?
The protein stability index was 3.5.

Which protein stability index does the source give for VVGTPCYISPELCEGKPSNQKSDI [Y18S] here?
The protein stability index was 3.86.
